Assay [1] concerns the target T1, fusion protein containing the extracellular domain of human FRalpha and a polyhistidine tag (human, UniProt P15328 25-233).
T1 construct: extracellular domain; Coated on ELISA plates; also called human FRalpha extracellular domain; not shown: polyhistidine tag
Briefly: ELISA, human FRalpha ECD-His coated. As to the method: (§1) The affinity of each IgG1 for FRalpha was confirmed by ELISA. Briefly, a fusion protein containing the extracellular domain of human FRalpha and a polyhistidine tag was used to coat ELISA plates, which were washed three times with phosphate-buffered saline (PBS) containing 0.1 percent polysorbate 20 (PBST), then blocked with PBS containing 5 percent powdered milk (PBSM), and then washed three more times with PBST. Wells were then incubated with antibodies at varying concentrations for 60 minutes at room temperature in 1 percent PBSM. Wells were then washed three times with PBST, after which the secondary, horseradish-peroxidase-conjugated antibody anti-human-IgG-Fc-HRP (ab97225, Abcam, United Kingdom) was added at a 1:8000 dilution in 1 percent PBSM for 50 minutes at room temperature. The wells were then washed six times with PBST, after which 3,3', 5,5"-tetramethylbenzidine (TMB) was added. The reaction was stopped with 2 molar sulfuric acid, and the TMB diamine product was quantified at 450 nanometers in a plate reader. Results are depicted in FIG. 2.
(In an ELISA, binding on a coated surface is turned into a signal by an enzyme label.)

In assay [2] the target is T2, human FRalpha expressed on cells (transfected HEK293 cells; SKOV3 human ovarian cancer cells) (human, UniProt P15328 25-234).
T2 construct: whole, on cells; also called folate receptor alpha
T2 sequence (P15328 25-234): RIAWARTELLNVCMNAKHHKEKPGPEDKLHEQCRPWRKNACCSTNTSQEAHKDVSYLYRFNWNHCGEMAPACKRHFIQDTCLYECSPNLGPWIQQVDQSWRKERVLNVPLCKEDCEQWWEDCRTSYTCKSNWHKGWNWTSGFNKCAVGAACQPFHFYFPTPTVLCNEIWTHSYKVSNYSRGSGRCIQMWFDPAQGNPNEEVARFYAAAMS
Briefly: flow cytometry on HEK293 cells transfected to express FRalpha. As to the method:
(§2) The affinity of each antibody was then assessed by flow cytometry. Briefly, HEK293 cells transfected to express FRalpha were washed with fluorescence-activated cell sorting (FACS) buffer, to which the IgGs were added at varying concentrations and incubated at 4 degrees Celsius for 60 minutes. The cells were then centrifuged and washed twice in FACS buffer. A phycoerythrin-labelled anti-human IgG, Fcgamma antibody (109-115-098; Jackson ImmunoResearch, Pennsylvania, United States) was then added to the cells at a 1:200 dilution and incubated at 4 degrees Celsius for 30 minutes. The cells were then washed, resuspended in FACS buffer, and counted by flow cytometry. Results are depicted in FIG. 4.

For assay [3], the target named is T3, fusion protein containing the extracellular domain of cynomolgus FRalpha and a polyhistidine tag (cynomolgus, UniProt A0A2K5U044 25-233).
T3 construct: extracellular domain; Coated on ELISA plates; also called cynomolgus FRalpha extracellular domain; not shown: polyhistidine tag
T3 sequence (A0A2K5U044 entry or part of it): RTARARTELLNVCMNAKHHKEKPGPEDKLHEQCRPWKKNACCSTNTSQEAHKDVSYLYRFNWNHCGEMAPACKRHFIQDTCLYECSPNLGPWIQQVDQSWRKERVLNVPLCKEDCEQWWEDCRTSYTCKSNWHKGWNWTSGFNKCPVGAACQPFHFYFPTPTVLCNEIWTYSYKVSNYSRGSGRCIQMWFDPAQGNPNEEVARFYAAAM
Nature of the assay: ELISA, cynomolgus FRalpha ECD-His coated. As to the method: as §1
The ELISA of the preceding paragraph was repeated with a fusion protein containing the extracellular domain of cynomolgus FRalpha and a polyhistidine tag. Results are depicted in FIG. 3.

The target in assay [4] is T2, human FRalpha expressed on cells …. Nature of the assay: flow cytometry on SKOV3 human ovarian cancer cells that express FRalpha. As to the method:
as §2
The flow cytometry experiment of the preceding paragraph was repeated with a human ovarian cancer cell line that expresses FRalpha, SKOV3. Results are depicted in FIGS. 5A and 5B. […] The antibody according to SEQ ID NO: 3-12 was then designated the lead antibody for further development.

T1 sequence (P15328 25-233 limits assumed): as the sequence (A0A2K5U044 entry or part of it) above, with T2I, R4W, K37R, P146A, Y171H counted along it

B1: Mirvetuximab (antibody, V domains shown)
VH: QVQLVQSGAEVVKPGASVKISCKASGYTFTGYFMNWVKQSPGQSLEWIGRIHPYDGDTFYNQKFQGKATLTVDKSSNTAHMELLSLTSEDFAVYYCTRYDGSRAMDYWGQGTTVTVSS
VL: DIVLTQSPLSLAVSLGQPAIISCKASQSVSFAGTSLMHWYHQKPGQQPRLLIYRASNLEAGVPDRFSGSGSKTDFTLTISPVEAEDAATYYCQQSREYPYTFGGGTKLEIK
One may read the EC50 as the concentration giving half of the maximal effect. Read a low EC50 as greater potency. For the molecule B1, the results for the EC50 in assay [1], in assay [2] and in assay [3] were approximately 0.12 nM, approximately 4 nM and approximately 0.16 nM, respectively.

B2: lead fully-human anti-FRalpha IgG1 antibody (antibody according to SEQ ID NO: 3-12) (antibody, V domains shown)
VH: EVQLLESGGGLVKPGGSLRLSCAASGFTFSSYTMNWVRQAPGKGLEWVSSISSGGGYIYYADSVKDRFTISRDNAKNSLYLQMNSLRAEDTAVYYCAKGDTIMIISAWGQGTTVTVSS
VL: DIQLTQSPSTLSASVGDRVTITCRASQSISSWLAWHQQKPGKAPKLLIYAASSLQNGVPSRFSGSGFGTDFTLTISSLQPEDFATYYCQQASSFPLTFGGGTKVEIKR
notes: Human IgG1 / kappa; also called lead antibody; the anti-FRalpha IgG of this disclosure
For B2, the EC50 is approximately 0.05 nM in assay [1], approximately 5 nM in assay [2], less than 1 nM in assay [4] and approximately 0.06 nM in assay [3].

The record behind these values is patent US12240900 (MEDICOVESTOR, dated 2025).
